Results on 4 molecules are retold here after PMC5702613 (Nature Communications, 2017).

The labels stand for the following.
B1: Homo sapiens TRAF6 RZ3 (RING domain and first three zinc fingers, residues 50-211) (domain or fragment, UniProt Q9Y4K3 50-211, looked up)
chain: MEEIQGYDVEFDPPLESKYECPICLMALREAVQTPCGHRFCKACIIKSIRDAGHKCPVDNEILLENQLFPDNFAKREILSLMVKCPNEGCLHKMELRHLEDHQAHCEFALMDCPQCQRPFQKFHINIHILKDCPRRQVSCDNCAASMAFEDKEIHDQNCPLA
notes: TNF receptor-associated factor 6 (TRAF6), human, residues 50-211 (RING and ZF1-3), 20.0 kDa, in pET21d; also called HsRZ3; wild-type HsRZ3; source: E. coli BL21 (DE3), purified (HisTrap, size exclusion)
B2: Danio rerio TRAF6 RZ1 (RING and ZF1, residues 50-159) (domain or fragment, UniProt Q6IWL4 50-159, looked up)
chain: MPPDQQGYDVEFDPPLESKYECPICLMGLRSAVQTPCGHRFCDSCIRKSIRDTGQKCPVDNEVLLEEQLFPDNFAKREILSLTVKCSNFGCSEKMELRQLEKHLSQCRFA
notes: TRAF6, Danio rerio, residues 50-159 (RING and ZF1), 13.7 kDa, in pET24b; also called DrRZ1; source: E. coli BL21 (DE3), purified (HisTrap, size exclusion)
B3: Danio rerio TRAF6 RZ3 (residues 50-213) (domain or fragment, UniProt Q6IWL4 50-213, looked up)
chain: MPPDQQGYDVEFDPPLESKYECPICLMGLRSAVQTPCGHRFCDSCIRKSIRDTGQKCPVDNEVLLEEQLFPDNFAKREILSLTVKCSNFGCSEKMELRQLEKHLSQCRFATAPCPQCQESVPISHLDEHKSQHCLQRIMTCPDCAGSFVYAVKQNHEQFCPFAN
notes: TRAF6, Danio rerio, residues 50-213 (RING and ZF1-3), 19.7 kDa, in pET24b; also called DrRZ3; D. rerio RZ3 TRAF6; source: E. coli BL21 (DE3), purified (HisTrap, size exclusion)
B4: Ubc13 (C87K, K92T, K94Q), the E2 moiety of the Ubc13~Ub conjugate (enzyme)
chain: MAGLPRRIIKETQRLLAEPVPGIKAEPDESNARYFHVVIAGPQDSPFEGGTFKLELFLPEEYPMAAPKVRFMTKIYHPNVDKLGRIKLDILTDQWSPALQIRTVLLSIQALLSAPNPDDPLANDVAEQWKTNEAQAIETARAWTRLYAMNNI
modifications: isopeptide-linked to ubiquitin (C87K allows the stable isopeptide link)
notes: Ubc13 (also called Ube2N), E2 enzyme, with C87K, K92T and K94Q; Stands in the structures only as the Ubc13 moiety of the conjugate m4; also called Ube2N; not shown: GST, N-terminal, cleaved

Series [1] has as its target T1, isopeptide-linked Ubc13-ubiquitin conjugate (Ubc13 C87K, K92T, K94Q linked to wild-type ubiquitin) (UniProt P61088 1-152; P0CG48 1-76, C87K | K92T | K94Q, isopeptide-linked to ubiquitin (C87K allows the stable isopeptide link) | isopeptide-linked to Ubc13).
T1 construct: Ubc13 (also called Ube2N), E2 enzyme, with C87K, K92T and K94Q; ubiquitin, wild-type, expressed untagged; Two chains joined covalently by an isopeptide bond; also called Ubc13~Ub conjugate; source: proteins from E. coli BL21 (DE3); conjugated in vitro with E1 and ATP, purified (Superdex 75); not shown: GST, N-terminal, cleaved
Kind of series: pull-down; GST-fused Uev1A on resin mixed with TRAF6, Ubc13 and Ubc13~Ub conjugates; PBS, 0.2% TWEEN 20, 1 mM DTT, 4 °C, 1 h; Coomassie-stained SDS-PAGE. As to conditions: both partners purified.

The target in series [2] is T1, isopeptide-linked Ubc13-ubiquitin …. The series is described as follows: crystal structure; DrRZ1-Ubc13~Ub complex, 3.4 Å, C222(1); sodium citrate, 100 mM Bis-Tris propane, 17-23% PEG 3350. As to conditions: both partners purified.
Series [3] concerns the molecule itself. Described as above.
Series [4] addresses T2, ubiquitin (wild-type), the ubiquitin moiety of the Ubc13~Ub conjugate (UniProt P0CG48 1-76, isopeptide-linked to Ubc13).
T2 construct: ubiquitin, wild-type, expressed untagged; Stands in the structures only as the ubiquitin moiety of the conjugate m4; In the activity assays labelled or mutated ubiquitins (Cy3-Met-Cys-ubiquitin K63R, D77 ubiquitin) were used; source: E. coli BL21 (DE3), untagged, purified (HiTrap SP, Superdex 75)
The series is described as above. Conditions: both partners purified.

The target in series [5] is B4. The series is described as above. As to conditions: both partners purified.
In series [6] the target is T1, isopeptide-linked Ubc13-ubiquitin …. The series is described as follows: SEC; DrRZ3 and Ubc13~Ub at 250 µM, alone or mixed, Superdex 200 10/300, 20 mM Tris-HCl pH 7.5, 150 mM NaCl; fractions on 16% SDS-PAGE. Conditions: both partners purified.
Series [7] deals with the molecule itself. The series is described as follows: crystal structure; DrRZ3-Ubc13~Ub complex, 3.9 Å, P4(2)2(1)2; 100-200 mM Na/K tartrate, 11-15% PEG 3350, 100 mM Bis-Tris propane pH 7.5.
The target of series [8] is T2, ubiquitin (wild-type), the ubiquitin …. Described as above. As to conditions: both partners purified.
The target of series [9] is B3. Described as above. As to conditions: both partners purified.

Turning to B1, the binding result in series [1] was “binds”.

Take B2: the binding result in series [2], in series [4] and in series [5] was “binds” each time. Also, the “stoichiometry N” value in series [3] was 2.

On to B3, for which the binding result in series [6] and in [8] was “binds” in each case. In series [7], the “stoichiometry N” value turned out to be 2.

Consider B4, for which the binding result in [9] and in series [4] was “binds” each time.
